The results in this text go back to US8603949B2, “Libraries of optimized cytochrome P450 enzymes and the optimized P450 enzymes” (California Institute of Technology, priority 2003, dated 2013).

The nature of series [1]: Peroxidase activity with ABTS and H2O2. In kind it is biochemical. The conditions noted are these: for Peroxidase activity: 10 mM ABTS, 20 mM H2O2, pH 5.0, activities <0.2 not detectable (N.D.); for peroxidase activity relative to parents: ABTS. The text has this: P450s can reduce peroxide to water (and a proton) using a mechanism similar to that of peroxidases, although the intrinsic rate for P450s is many orders of magnitude slower. (Mansuy, D., Comp Biochem Physiol C Pharmacol Toxicol Endocrinol 121, 5-14 (1998)). It has been proposed that the earliest P450 function may have been as a peroxidase. (Gotoh, O., Cytochrome P450, 2nd Edition, pp. 255-272 (1993)). To investigate how recombination affects P450 peroxidase activity, the colorimetric substrate 2,2′-azino-bis(3-ethylbenzothiazoline-6-sulfonate) (ABTS) was used to monitor this reaction (Childs et al., Biochem J 145,93-103 (1975)).
This example provides an example of how one can measure peroxidase activity. Initial rates of peroxidase activity were measured by monitoring the accumulation of the radical cation of ABTS at 414 nm (Childs et al., Biochem J., 145:93-103 (1975)). Enzyme (1 μM) was mixed with 10 mM ABTS in 200 mM phosphate buffer (pH 5.0) in a cuvette at room temperature. Samples were zeroed and reactions were initiated with the addition of H2O2 to a concentration of 20 mM. The absorbance at 414 nm was monitored for 5 minutes. Rates were determined from the steepest portion of the time course. An extinction coefficient of […] for ABTS was used.

Series [2] is described as follows: Thermostability (loss of Soret band at increasing temperatures). In kind it is physicochemical. The conditions noted are these: cell extracts heated 10 minutes. How it is done: Thermostability was assayed by monitoring the loss of the Soret band at increasing temperatures. […] However, thermostability may be important for retention of catalytic activity: the two chimeras that lacked peroxygenase activity were also the least thermostable.
Cell extracts were heated in a thermocycler for 10 minutes at various temperatures, followed by cooling to 4° C. Extracts were centrifuged for 5 minutes at 3500×g to remove any precipitates. Carbon monoxide reduced difference spectroscopy was used to quantitate the amount of P450. The reduction of the carbon monoxide peak was monitored over a range of temperatures.

The nature of series [3]: Peroxygenase substrate activity profile. In kind it is biochemical. Particulars: 20 mM H2O2. How it is done:
The chimeras were assayed for hydroxylation of p-nitrophenoxydodecanoic acid (12-pNCA), a fatty acid analog that is hydroxylated by CYP102A1 and CYP102A2 to yield p-nitrophenolate (Schwaneberg et al., Anal Biochem 269,359-366 (1999)). […] When hydroxylation rates for the parent CYP102 enzymes were monitored using the maximum soluble concentrations of these substrates, activity could only be detected on 2-phenoxy-ethanol.
Chimeras were assayed for peroxygenase activity on 12-pNCA, 2-phenoxy -ethanol and allyloxy-benzene. […] Rates are reported in nmol product/nmol P450/minute. […] Those with no activity include 65-256 and 277-365. Those with new activity include 165-256, 191-335, and 43-135.
This Example provides one method by which peroxygenase activity of a P450 enzyme may be characterized. First order rates for p-nitrophenolate accumulation were determined using 1 μM enzyme, 20 mM H2O2, 250 μM 12-pNCA and 0.5% dimethyl sulfoxide (DMSO) in 100 mM Tris-HCl (pH 8.2) at room temperature. Enzyme, substrate, buffer and DMSO were combined in a cuvette and zeroed at 410 nm. Reaction mixtures were incubated for 4 minutes and initiated by the addition of H2O2 to a final concentration of 20 mM. Initial rates were determined by monitoring the accumulation of p-nitrophenolate at 410 nm, and data from the first six seconds were used to determine initial rates. […] The extinction coefficient of p-nitrophenolate is 13,200 M^−1cm^−1 (Schwaneberg et al., Anal Biochem 269:359-366 (1999)).
Rates on 2-phenoxy-ethanol and allyloxy-benzene were determined using 2 μM enzyme, 20 mM H2O2, 1% DMSO, and 1% acetone in 100 mM N-[2-hydroxyethyl]piperazine-N′-[3-propanesulfonic acid] (Epps) (pH 8.2) at room temperature. Substrate concentrations for 2-phenoxy-ethanol (100 mM) and allyloxy benzene (50 mM) maintained saturation. Reactions were initiated by the addition of H2O2 and quenched at appropriate times using an equal volume of a solution containing 4M urea and 100 mM NaOH. 120 μl of 0.6% 4-AAP was added, followed by mixing and addition of 120 μl of 0.6% potassium persulfate. Color was allowed to develop for 20 minutes before absorbance was read at 500 nm. Rates were determined from the linear region of the time course. The major products were determined by GC/MS to be the hemiacetal, which decomposes to phenol. The extinction coefficient for the 4-AAP/phenol complex was determined to be 4,800 M^−1cm^−1. The results can be seen in FIG. 4.

B1: CYP102A2: parent P450 heme domain from Bacillus subtilis, with the F88A mutation (protein, listed as Bacillus subtilis)
chain: KETSPIPQPKTFGPLGNLPLIDKDKPTLSLIKLAEEQGPIFQIHTPAGTTIVVSGHELVKEVCDEERFDKSIEGALEKVRAFSGDGLATSWTHEPNWRKAHNILMPTFSQRAMKDYHEKMVDIAVQLIQKWARLNPNEAVDVPGDMTRLTLDTIGLCGFNYRFNSYYRETPHPFINSMVRALDEAMHQMQRLDVQDKLMVRTKRQFRYDIQTMFSLVDSIIAERRANGDQDEKDLLARMLNVEDPETGEKLDDENIRFQIITFLIAGHETTSGLLSFATYFLLKHPDKLKKAYEEVDRVLTDAAPTYKQVLELTYIRMILNESLRLWPTAPAFSLYPKEDTVIGGKFPITTNDRISVLIPQLHRDRDAWGKDAEEFRPERFEHQDQVPHHAYKPFGNGQRACIGMQFALHEATLVLGMILKYFTLIDHENYELDIKQTLTLKPGDFHISVQSRHQEAIHADVQAAE
Regarding B1, in series [1], the Peroxidase activity is 0.4 nmol product/nmol P450/min and the “peroxidase activity relative to parents” value is on record as “low, but detectable peroxidase activity”. Besides, in series [2], the Tm amounted to 44 °C.

B2: Chimera 364-403: CYP102A1 heme domain with residues 364-403 from CYP102A2 (protein)
chain: TIKEMPQPKTFGELKNLPLLNTDKPVQALMKIADELGEIFKFEAPGRVTRYLSSQRLIKEACDESRFDKNLSQALKFVRDFAGDGLATSWTHEKNWKKAHNILLPSFSQQAMKGYHAMMVDIAVQLVQKWERLNADEHIEVPEDMTRLTLDTIGLCGFNYRFNSFYRDQPHPFITSMVRALDEAMNKLQRANPDDPAYDENKRQFQEDIKVMNDLVDKIIADRKASGEQSDDLLTHMLNGKDPETGEPLDDENIRYQIITFLIAGHETTSGLLSFALYFLVKNPHVLQKAAEEAARVLVDPVPSYKQVKQLKYVGMVLNEALRLWPTAPAFSLYAKEDTVLGGEYPLEKGDELMVLIPQLHRDRDAWGKDAEEFRPERFEHQDQVPHHAYKPFGNGQRACIGMQFALHEATLVLGMMLKHFDFEDHTNYELDIKETLTLKPEGFVVKAKSKKIPLGGIPSPST
modifications: Chimeric Cytochrome P450 heme group sequence from Bacillus megaterium and Bacillus subtilis
notes: CYP102A1 heme domain with residues 364-403 from CYP102A2
In the case of B2, the Peroxidase activity in series [1] is recorded as 1 nmol product/nmol P450/min. In addition, the “substrate activity profile relative to parents” value in series [3] is reported as “parent-like profiles”. The Tm in series [2] was found to be 51 °C.

B3: Chimera 165-256M: mirror chimera of 165-256, sequences from opposite parents at every position (protein)
chain: KETSPIPQPKTFGPLGNLPLIDKDKPTLSLIKLAEEQGPIFQIHTPAGTTIVVSGHELVKEVCDEERFDKSIEGALEKVRAFSGDGLATSWTHEPNWRKAHNILMPTFSQRAMKDYHEKMVDIAVQLIQKWARLNPNEAVDVPGDMTRLTLDTIGLCGFNYRFNSFYRDQPHPFITSMVRALDEAMNKLQRANPDDPAYDENKRQFQEDIKVMNDLVDKIIADRKASGEQSDDLLTHMLNGKDPETGEPLDDENIRYQIITFLIAGHETTSGLLSFATYFLLKHPDKLKKAYEEVDRVLTDAAPTYKQVLELTYIRMILNESLRLWPTAPAFSLYPKEDTVIGGKFPITTNDRISVLIPQLHRDRDAWGKDAEEFRPERFEHQDQVPHHAYKPFGNGQRACIGMQFALHEATLVLGMILKYFTLIDHENYELDIKQTLTLKPGDFHISVQSRHQEAIHADVQAAE
modifications: Chimeric Cytochrome P450 heme group sequence from Bacillus megaterium and Bacillus subtilis
For the molecule B3, in series [1], the Peroxidase activity was 3.5 nmol product/nmol P450/min and the “peroxidase activity relative to parents” value was “did not show similarly enhanced levels”. In addition, the “substrate activity profile relative to parents” value in series [3] is reported as “parent-like profiles”. Moreover, in series [2], the Tm was 50 °C.

B4: Chimera 169-197M: mirror chimera of 169-197, sequences from opposite parents at every position (protein)
chain: KETSPIPQPKTFGPLGNLPLIDKDKPTLSLIKLAEEQGPIFQIHTPAGTTIVVSGHELVKEVCDEERFDKSIEGALEKVRAFSGDGLATSWTHEPNWRKAHNILMPTFSQRAMKDYHEKMVDIAVQLIQKWARLNPNEAVDVPGDMTRLTLDTIGLCGFNYRFNSYYREQPHPFITSMVRALDEAMNKLQRANPDDPAMVRTKRQFRYDIQTMFSLVDSIIAERRANGDQDEKDLLARMLNVEDPETGEKLDDENIRFQIITFLIAGHETTSGLLSFATYFLLKHPDKLKKAYEEVDRVLTDAAPTYKQVLELTYIRMILNESLRLWPTAPAFSLYPKEDTVIGGKFPITTNDRISVLIPQLHRDRDAWGKDAEEFRPERFEHQDQVPHHAYKPFGNGQRACIGMQFALHEATLVLGMILKYFTLIDHENYELDIKQTLTLKPGDFHISVQSRHQEAIHADVQAAE
modifications: Chimeric Cytochrome P450 heme group sequence from Bacillus megaterium and Bacillus subtilis
As for B4, in series [1], the Peroxidase activity was 0.3 nmol product/nmol P450/min and the “peroxidase activity relative to parents” value is recorded as “did not show similarly enhanced levels”. Further, in series [3], the “substrate activity profile relative to parents” value is recorded as “altered activity”. For the same molecule, in series [2], the Tm amounted to 43 °C.

B5: Chimera 70-299: CYP102A1 heme domain with residues 70-299 from CYP102A2 (protein)
chain: TIKEMPQPKTFGELKNLPLLNTDKPVQALMKIADELGEIFKFEAPGRVTRYLSSQRLIKEACDESRFDKSIEGALEKVRAFSGDGLATSWTHEPNWRKAHNILMPTFSQRAMKDYHEKMVDIAVQLIQKWARLNPNEAVDVPGDMTRLTLDTIGLCGFNYRFNSYYRETPHPFINSMVRALDEAMHQMQRLDVQDKLMVRTKRQFRYDIQTMFSLVDSIIAERRANGDQDEKDLLARMLNVEDPETGEKLDDENIRFQIITFLIAGHETTSGLLSFATYFLLKHPDKLKKAYEEVDRVLTDPVPSYKQVKQLKYVGMVLNEALRLWPTAPAFSLYAKEDTVLGGEYPLEKGDELMVLIPQLHRDKTIWGDDVEEFRPERFENPSAIPQHAFKPFGNGQRACIGQQFALHEATLVLGMMLKHFDFEDHTNYELDIKETLTLKPEGFVVKAKSKKIPLGGIPSPST
modifications: Chimeric Cytochrome P450 heme group sequence from Bacillus megaterium and Bacillus subtilis
notes: CYP102A1 heme domain with residues 70-299 from CYP102A2
Turning to B5, in series [1], the Peroxidase activity is 0.8 nmol product/nmol P450/min. Also, the “substrate activity profile relative to parents” value in series [3] is listed as “altered activity”. Further, in series [2], the Tm amounted to 42 °C.
